Experiment [1] deals with T1, 82-96aa.
T1 construct: also called alpha-synuclein peptide 82-96
T1 peptide: {Biotin-Ahx}-VEGAGSIAAATGFVK
In words: 15-mer peptide ELISA.
Procedure: (§1) Epitope mapping for the antibodies derived from stable hybridoma clones was determined using an indirect ELISA on a library of 15-mer peptides covering the entire sequence of human alpha-synuclein from 1 to 140aa. […] Results are expressed as optical density (O.D.). Each bar represents data for an individual antibody.
(§2) Serum-free supernatants were harvested from stable hybridomas. The supernatants containing antibodies of interest were then screened by an indirect ELISA assay to determine epitopes. Epitopes were first determined using a library of 15-mer peptides covering the entire sequence of human alpha-synuclein protein, spanning amino acids (aa) 1-140 with 9aa offset and 6aa overlap. […] Briefly, streptavidin-coated ELISA plates were blocked overnight at 4° C. […] Plates were washed with PBS/0.05% Tween® 20 and then incubated with the hybridoma supernatants at 1/100 dilution for 1 hour at 25° C. […] After final wash, plates were incubated 2 hours at 25° C. with alkaline phosphatase substrate (p-nitrophenyl phosphate disodium hexahydrate; pNPP, S0942, Sigma) and read the absorbance optical density (O.D.) signal at 405 nm using an ELISA plate reader (Tecan, Switzerland).

Experiment [2] deals with T2, 91-105aa.
T2 construct: also called alpha-synuclein peptide 91-105
T2 peptide: {Biotin-Ahx}-ATGFVKKDQLGKNEE
Kind of experiment: 15-mer peptide ELISA.
Procedure: as §1, §2

Experiment [3] concerns the target T3, 100-114aa.
T3 peptide: {Biotin-Ahx}-LGKNEEGAPQEGILE
Kind of experiment: indirect ELISA on biotinylated 15-mer peptide (streptavidin plate), supernatant 1/100.
Procedure: as §1, §2

Experiment [4] has as its target T4, 109-123aa.
T4 peptide: {Biotin-Ahx}-QEGILEDMPVDPDNE
Described as above.
Procedure: as §1, §2

Experiment [5] addresses T3, 100-114aa. Kind of experiment: 15-mer peptide ELISA.
Procedure: as §1, §2
In experiment [6] the target is T5, 37-51aa.
T5 construct: also called alpha-synuclein peptide 37-51
T5 peptide: {Biotin-Ahx}-VLYVGSKTKEGVVHG
Kind of experiment: 15-mer peptide ELISA.
Procedure: as §1, §2

The target in experiment [7] is T6, 1-15aa.
T6 construct: also called alpha-synuclein peptide 1-15
T6 peptide: {Biotin-Ahx}-MDVFMKGLSKAKEGV
Kind of experiment: 15-mer peptide ELISA.
Procedure: as §1, §2

In experiment [8] the target is T1, 82-96aa. In words: indirect ELISA on biotinylated 15-mer peptide (streptavidin plate), supernatant 1/100.
Procedure: as §1, §2
In experiment [9] the target is T2, 91-105aa. Kind of experiment: 15-mer peptide ELISA.
Procedure: as §1, §2
Experiment [10] addresses T4, 109-123aa. In words: 15-mer peptide ELISA.
Procedure: as §1, §2
Experiment [11] concerns the target T5, 37-51aa. Kind of experiment: indirect ELISA on biotinylated 15-mer peptide (streptavidin plate), supernatant 1/100.
Procedure: as §1, §2
In experiment [12] the target is T1, 82-96aa. Kind of experiment: 15-mer peptide ELISA.
Procedure: as §1, §2
In experiment [13] the target is T6, 1-15aa. In words: indirect ELISA on biotinylated 15-mer peptide (streptavidin plate), supernatant 1/100.
Procedure: as §1, §2
Experiment [14] addresses T2, 91-105aa. The experiment is described as above.
Procedure: as §1, §2

Where no end group is shown, it is not given here. The star is where a group is joined. Biotin = O=C1N[C@H]2[C@H](CS[C@H]2CCCCC(=O)*)N1; Ahx = NCCCCCC(=O)O

B1: ACI-8033-5A12-Ab1 (antibody, V domains shown)
VH: QVHLKQSGADLVRPGASVKLSCKASGYTFTDYYINWVKQRPGQGLEWIARIYPGSGNTYYNEKFKGRATLSAEKSSTTAYMQLSSLTSEDSAVYFCVVGYYGAWGQGTTLTVSS
VL: DVVMTQTPLSLPVSLGDQASISCRSSQSLVHSNGKTHLHWYLQKPGQSPKLLIYKVSNRFSGVPDRFSGSGSGTDFTLKISRVEAEDLGVYFCSQSTHVPWTFGGGTKLEIK
notes: mouse hybridoma mAb; also called 917.5A12A11C9
Regarding B1, the binding result is listed as “no binding (tested: supernatant 1/100)” with 82-96aa [1], “no binding (tested: supernatant 1/100)” with 91-105aa [2], “binds” with 100-114aa [3] and “binds” with 109-123aa [4].

B2: ACI-8033-1G10-Ab1 (antibody, V domains shown)
VH: DVQLQESGPGLVKPSQTVFLTCTVTGISITTGNYRWSWIRQFPGNKLEWIGYIYYSGTITYNPSLTSRTTITRDTPKNQFFLEMNSLTAEDTATYYCARIYYGNAMDYWGQGTSVTVSS
VL: DVVMTQTPLSLPVSLGDQASISCRSSQSLVHSNGNTYLHWYLQKPGQSPKLLIYKVSNRFSGVPDRFSGSGSGTDFTLKISRVEAEDLGVYFCSQSTHVPHTFGGGTKLEIK
notes: mouse hybridoma mAb; also called 917.1G10A10F6
Consider B2, for which the binding result with 82-96aa [1] is “no binding (tested: supernatant 1/100)”; in the experiment with 91-105aa [2], “no binding (tested: supernatant 1/100)”; with 109-123aa [4], “binds”.

B3: ACI-8033-19A2-Ab1 (antibody, V domains shown)
VH: EVQLVESGGGLVQPKGSLKLSCAASGFSFNTYAMNWVRQAPGKGLEWVARIRSKSNNYATYYVDSVKDRFTISRDDSESMLYLQMNNLKTEDTALYYCVSESAYWGQGTLVTVSA
VL: DVVMTQTPLSLPVSLGDQASISCRSSQSLVHSNGNTYLYWYLQKPGQSPKLLIYKVSNRLSGVPDRFSGSGSGTDFTLKISRVEAEDLGVYFCSQSTHVPFTFGSGTKLEIK
notes: mouse hybridoma mAb; also called 917.19A2E9E5
On to B3, for which the binding result is on record as “no binding (tested: supernatant 1/100)” with 100-114aa [5], “no binding (tested: supernatant 1/100)” with 82-96aa [1], “no binding (tested: supernatant 1/100)” with 91-105aa [2] and “binds” with 109-123aa [4].

B4: ACI-8033-1A12-Ab1 (antibody, V domains shown)
VH: QVHLKQSGADLVRPGASVKLSCKASGYSFTDFYINWVKQTPGQGLEWIARIYPGNNNTFYNEKFKGKATLSAEKSSTTAYMQLSSLTSEDSAVYFCVVGYYGAWGQGTTLTVSS
VL: DVVMTQTPLSLPVSLGDQASISCRSSQSLVHSNGNTHLHWYLQKPGQSPKLLIYKVSNRFSGVPDRFSGSGSGTDFTLKISRVEAEDLGFYFCSQSTHVPWTFGGGTKLEIK
notes: mouse hybridoma mAb; also called 917.1A12C1B4
B4: the binding result with 100-114aa [5] is given as “no binding (tested: supernatant 1/100)”; in the experiment with 82-96aa [1] it was “no binding (tested: supernatant 1/100)”; with 91-105aa [2], “no binding (tested: supernatant 1/100)”; with 109-123aa [4] it was “binds”.

B5: ACI-7089-4418F6-Ab1 (antibody, V domains shown)
VH: QVQLQQSGAELARPGASVKVSCKASGYTFTSSGISWLKHRTGQGLEWIGDIYPRSGNTYYNEKFKDKATLTADKSSSTAYMELRSLTSEDSAVYFCSSGNYWGQGTTLTVSS
VL: DIVITQDDLSNPVTSGESVSISCRSSKSLLYKDGKTYLNWFLQRPGQSPQLLIYLMSTRASGVSDRFSGSGSGTDFTLEISRVKAEDVGVYYCQQLLEYPLTFGAGTKLELK
notes: mouse hybridoma mAb; also called 4418F6G7
Regarding B5, the binding result with 37-51aa [6] is “no binding (tested: supernatant 1/100)”; in the experiment with 1-15aa [7], “no binding (tested: supernatant 1/100)”; with 82-96aa [8], “binds”; with 91-105aa [9], “no binding (tested: supernatant 1/100)”.

B6: ACI-8033-18C11-Ab1 (antibody, V domains shown)
VH: QVQLQQPGAELVKPGASVKMSCKAAGYTFSSYWITWVRQRPGQGLDWIGDIYPGGGVTNYNEKFKTKATLTVDTSSSTAYMQLSSLTSEDSAVYYCATAQTTFAYWGQGTLVTVSA
VL: DVLMTQTPLSLPVSLGDQASISCRSSQNIVHNNGNTYLEWYLQKPGQSPKLLIYKVSNRFSGVPDRFSGSGSGTDFTLKISRVEAEDLGVYYCFQGSHVPRTFGGGTKLEIK
notes: mouse hybridoma mAb; also called 917.18C11A11F10
B6: the binding result in the experiment with 82-96aa [1] is listed as “no binding (tested: supernatant 1/100)”; with 109-123aa [10], “no binding (tested: supernatant 1/100)”; with 91-105aa [2], “no binding (tested: supernatant 1/100)”; in the experiment with 100-114aa [3], “binds”.

B7: ACI-7088-4303A3-Ab1 (antibody, V domains shown)
VH: QVQLQQSGAELVRPGASVTLSCKASGYTFTDYEMHWVKQTPVHGLEWIGVIDPETGGAVQNQKFKGKAILTADNSSSTAYMDLRSLTSEDSAVYNCAMGAALRLAYWGQGTLVTVSS
VL: DVLMTQTPLSLPVSLGDQASISCRSSQSIVHSNGNSYLEWYLQKPGQSPKLLIYKVSNRFSGVPDRFSGSGSGTDFTLKINRVEAEDLGVYYCFQGSHVPFTFGSGTKLEIK
notes: mouse hybridoma mAb; also called 4303A3E4
Regarding B7, the binding result with 37-51aa [11] was “binds”; with 1-15aa [7], “no binding (tested: supernatant 1/100)”; with 82-96aa [12], “no binding (tested: supernatant 1/100)”; with 91-105aa [9], “no binding (tested: supernatant 1/100)”.

B8: ACI-8033-18D12-Ab1 (antibody, V domains shown)
VH: QVQLQQPGAELVKPGASVKMSCKASGYTFTSYWITWVRQRPGQGLDWIGDIYPGGGVTNYNEKFKTKATLTVDTSSSTAYMHLSSLTSEDSAVYFCATAQTTFAHWGQGTLVTVSA
VL: DVLMTQTPLSLPVSLGDQASISCRSSQNIAHNNGNTYLEWYLQKPGQSPKLLIYKVSNRFSGVPDRFSGSGSGTDFTLKISRVEAEDLGVYYCFQGSHVPRTFGGGTKLEIK
notes: mouse hybridoma mAb; also called 917.18D12F10D6
Regarding B8, the binding result is listed as “no binding (tested: supernatant 1/100)” in the experiment with 82-96aa [1], “no binding (tested: supernatant 1/100)” with 109-123aa [10], “no binding (tested: supernatant 1/100)” with 91-105aa [2] and “binds” with 100-114aa [3].

B9: ACI-7088-4303A1-Ab1 (antibody, V domains shown)
VH: EVQLQQSGAELVRPGASVKLSCTASGFNIKDDYMHWVKQRPEQGLEWIGWIDPENGDSEYASKFQGKATMTADTSSNTAYLQLSSLTSEDTAVYYCKTWGTAQALFPYWGQGTLVTVSA
VL: DIVMTQSQKFMSTSVGDRVSITCKASQNVGTSVGWYQQKAGQSPKLLIHSASNRYTGVPDRFTGSGSGTDFTLTINNMQSEDLADYFCQQYRSYPLTFGAGTKLELK
notes: mouse hybridoma mAb; also called 4303A1E7
In the case of B9, the values for the binding result with 1-15aa [13], with 37-51aa [6] and in the experiment with 82-96aa [12] were “binds”, “no binding (tested: supernatant 1/100)” and “no binding (tested: supernatant 1/100)”, respectively.

B10: ACI-7088-4317A4-Ab1 (antibody, V domains shown)
VH: EVQLQQSGAELVRPGASVKLSCTASGFNIKDDYMHWVKQRPEQGLEWIGWIDPENGDTEYASKFQGKATMTADTSSNTAYLQLSSLTSEDTAVYYCKTWGTTQALFPYWGQGTLVTVSA
VL: DIVMTQSQKFMYTSVGDRVSITCKASQNVGNAVGWYQQKAGQSPKLLIHSASNRYTGVPDRFTGTGSGTDFTLTINNMQSEDLADYFCQQYRSYPLTFGAGTKLELK
notes: mouse hybridoma mAb; also called 4317A4D2
In the case of B10, the binding result is on record as “binds” with 1-15aa [13], “no binding (tested: supernatant 1/100)” with 37-51aa [6], “no binding (tested: supernatant 1/100)” with 82-96aa [12] and “no binding (tested: supernatant 1/100)” in the experiment with 91-105aa [9].

B11: ACI-7089-4418C5-Ab1 (antibody, V domains shown)
VH: DGQLQESGPGLVKPSQSLSLTCSVTGYSITSGYYWNWIRQFPGNKLEWMGYINYDGSNNYNPSLKNRISITRDTSKNQFFLKFNFVTTEDTATYYCVRGDVYWGQGTTLTVSS
VL: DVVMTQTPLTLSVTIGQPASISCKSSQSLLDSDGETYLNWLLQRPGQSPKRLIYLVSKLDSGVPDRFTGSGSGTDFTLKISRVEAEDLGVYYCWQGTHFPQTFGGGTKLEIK
notes: mouse hybridoma mAb; also called 4418C5G1
In the case of B11, in the experiment with 82-96aa [8], the binding result is “binds”.

B12: ACI-7089-4409F1-Ab1 (antibody, V domains shown)
VH: DVQLQESGPGLVKPSQSLSLTCSVTGYSITRGYYWNWIRQFPGNKLEWMGYISYDGSNNYNPSLRNRISITRDTSKNQFFLKLKSVTTEDTATYFCARGDSNWGQGTTLTVSA
VL: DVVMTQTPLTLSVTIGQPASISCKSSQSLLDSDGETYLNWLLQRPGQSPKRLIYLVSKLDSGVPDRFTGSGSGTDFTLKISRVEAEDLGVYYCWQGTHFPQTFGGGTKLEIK
notes: mouse hybridoma mAb; also called 4409F1A8
Regarding B12, the values for the binding result in the experiment with 37-51aa [6], in the experiment with 1-15aa [7] and with 82-96aa [8] were “no binding (tested: supernatant 1/100)”, “no binding (tested: supernatant 1/100)” and “binds”, respectively.

B13: ACI-7088-4301H3-Ab2 (antibody, V domains shown)
VH: EVQLQQSGPELVKPGASVKISCKASGYTFADYFMNWVKQSHGKSLEWIGDINPNNGGTTYNQKFKGKATLTVDKSSNTAYMELRSLTSEDSAVYYCARGRNYAMDYWGQGTSVTVSS
VL: DIVMSQSPSSLAVSAGEKVTMSCKSSQSLLNSRTRKNYLAWYQQKPGQSPKLLIYSASTRESGVPDRFTGSGFGTDFTLTISSVQAEDLAVYYCKQSYDLWTFGGGTKLEIK
notes: mouse hybridoma mAb; also called 4301H3A5
Regarding B13, the binding result with 37-51aa [6] is “no binding (tested: supernatant 1/100)”; in the experiment with 1-15aa [7], “no binding (tested: supernatant 1/100)”; with 91-105aa [14], “binds”; with 82-96aa [12], “no binding (tested: supernatant 1/100)”.

The values above are taken from patent publication US20220298231A1 (AC IMMUNE, published 2022).
